Measurements as given in article doi:10.1101/2021.05.25.445566 (bioRxiv, 2021).
Residue numbers refer to the chain shown, from its start. In names and notes the source's numbering stands.

T1: MlaF K47A (Walker A variant) (UniProt P63386 1-269, K47A)
T1 sequence: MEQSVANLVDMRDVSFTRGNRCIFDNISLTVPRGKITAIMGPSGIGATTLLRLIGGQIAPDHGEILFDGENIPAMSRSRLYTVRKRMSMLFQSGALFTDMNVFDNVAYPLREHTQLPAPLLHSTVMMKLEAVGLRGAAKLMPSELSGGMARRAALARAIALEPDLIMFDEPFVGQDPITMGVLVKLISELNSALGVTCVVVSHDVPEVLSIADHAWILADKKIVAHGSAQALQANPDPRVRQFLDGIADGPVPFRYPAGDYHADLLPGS

T2: MlaF, nucleotide binding domain of the MlaFEDB ABC transporter (UniProt P63386 1-269)
T2 sequence: T1 sequence with A47K

B1: MlaD, substrate-binding MCE-domain protein of the MlaFEDB complex (natural protein)
chain: MQTKKNEIWVGIFLLAALLAALFVCLKAANVTSIRTEPTYTLYATFDNIGGLKARSPVSIGGVVVGRVADITLDPKTYLPRVTLEIEQRYNHIPDTSSLSIRTSGLLGEQYLALNVGFEDPELGTAILKDGDTIQDTKSAMVLEDLIGQFLYGSKGDDNKNSGDAPAAAPGNNETTEPVGTTK
B2: MlaD L106N/L107N (natural protein)
chain: B1 chain with L106N, L107N
B3: MlaB, cytoplasmic STAS-domain protein of the MlaFEDB complex (natural protein)
chain: MSESLSWMQTGDTLALSGELDQDVLLPLWEMREEAVKGITCIDLSRVSRVDTGGLALLLHLIDLAKKQGNNVTLQGVNDKVYTLAKLYNLPADVLPR
B4: MlaB T52A (natural protein)
chain: B3 chain with T52A
B5: MlaD Δ141-183 (natural protein)
chain: MQTKKNEIWVGIFLLAALLAALFVCLKAANVTSIRTEPTYTLYATFDNIGGLKARSPVSIGGVVVGRVADITLDPKTYLPRVTLEIEQRYNHIPDTSSLSIRTSGLLGEQYLALNVGFEDPELGTAILKDGDTIQDTKSA
B6: MlaE, His-tagged (His-E), permease of the MlaFEDB ABC transporter (natural protein)
chain: MLLNALASLGHKGIKTLRTFGRAGLMLFNALVGKPEFRKHAPLLVRQLYNVGVLSMLIIVVSGVFIGMVLGLQGYLVLTTYSAETSLGMLVALSLLRELGPVVAALLFAGRAGSALTAEIGLMRATEQLSSMEMMAVDPLRRVISPRFWAGVISLPLLTVIFVAVGIWGGSLVGVSWKGIDSGFFWSAMQNAVDWRMDLVNCLIKSVVFAITVTWISLFNGYDAIPTSAGISRATTRTVVHSSLAVLGLDFVLTALMFGN

How the values were obtained:
[1] = target: B6; assay: SEC
[2] = target: the molecule itself; assay: SDS-PAGE of SDS-resistant oligomers
[3] = target: T1, MlaF K47A (Walker A variant); assay: SEC
[4] = target: T2, MlaF, nucleotide binding domain of the …; assay: SEC

| binding result [1] | binding result [3] | binding result [4] | Binder | stoichiometry N [2] |
| --- | --- | --- | --- | --- |
| binds |  |  | B1 |  |
| binds |  |  | B2 | 6 |
| binds |  |  | B3 |  |
| binds |  |  | B4 |  |
| binds |  |  | B5 | 6 |
|  | binds | binds | B6 |  |
